Experiment: yeast display, Sf9 membrane polyspecificity reagent, FACS + sequencing; frameworks hold sequencing errors
Summary of the method: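 Polyreactivity labels are assigned by the sorting gate from which each nanobody was recovered. The gates were low and high (top ~1%), set on anti-HA fluorescence for expression and streptavidin fluorescence for reagent binding. Before sorting, galactose-induced (36–48 hours) yeast display cells were stained for 1 hour at 4 °C with 10% biotinylated, detergent-solubilized Sf9 membrane reagent.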
For “QVQLQDSGGGLVQAGGSLRLSCAASGSISIYGYMGWYRQAPGNERELVAAITAGGSTYYADSVKGRFTISRDNAKNTVYLLMKSLKPEDTAVYYCAPYEQRVYDLHYWGQGTQVTVSS”, the “polyreactivity (PSR sort gate)” value was “high polyreactivity”.
In the case of “QVQLQDSGGGLVQAGGSLRLSCAASGYIFGSGSMGWFRQAPGKERELVATINNGSSTYYADSVKGRFTISRDNAKNTVYLQMNSLKPEDTAVYYCGVFLYRLTFFYYWGQGNQVTVSS”, the “polyreactivity (PSR sort gate)” value is reported as “high polyreactivity”.
In the case of “QVQLQDSGGGLVQAGGSLRLSCAASGYIFGSGSMGWFRQAPGKERELVATINNGSSTYYADSVKGRFTISRDNAKNTVYLQMNSLKPEDTAVYYCNRVGTYHSYDYWGQGTQVTVSS”, the “polyreactivity (PSR sort gate)” value is reported as “high polyreactivity”.
In the case of “QVQLQDSGGGLVQARGSLRPSCAASGTISDGVPMGWYRQAPGEVRELVATTVLGATTNYADSVKGRFTISRGNAKNTVYLQMNSLKPEETAVYYCAAPLRYDKGFSYWGQGTQVTVSS”, the “polyreactivity (PSR sort gate)” value is reported as “low polyreactivity”.
In the case of “QVQLQECGGGLEQAGGSLRLSCAASGTFSNSVKWLYCQARGKEREFVATIGVGGSTNYADSVKGRFTISRDNAKNTVYLQMNSLKPEDTAVYHCAAYGAASNFHYYRGQGTQVTVSS”, the “polyreactivity (PSR sort gate)” value is reported as “low polyreactivity”.
In the case of “QVQLQECGGGLVQAGGSLRLSCAASGNIFDADIMGWYRQAPGKERELVASVSDGGSTNYADSVKGRFTISRDNAKNTVYLQMNSLKPEDTAVYYCAAIVYPDILTYFDYDYDYFYWGQGTQVTVGS”, the “polyreactivity (PSR sort gate)” value is reported as “low polyreactivity”.
In the case of “QVQLQECGGGLVQAGGSLRLSCAASGNIFDADIMGWYSQAPGKERELVDSVTDGGSTNYADSVKGRFTISRDNAKNTVYLQMNSLKPEHTAVYYCAAIVYPDILTYFDYDYDYFYWGQGTQVTVGS”, the “polyreactivity (PSR sort gate)” value is reported as “low polyreactivity”.
For “QVQLQEGGGGLVQAGGSLRLSCAASGYISYGDVMGWYRQAPGEERELVASIGLDATTNYADSVKGRFTISRDNAKITVYVQMNSLKPEDTAVYYCAADVGSGVLCGYWGQGTQMTVSS”, the “polyreactivity (PSR sort gate)” value was “high polyreactivity”.
For “QVQLQEIGGGLVQAGGSLRLSCAATGSIFVSVTMGWYRQAPGKERELVASIGRGSTTNHADSVKGRFTISRDNAKNIVYLLMNSLKPEDTAVYYCAALESYGKYHGYWGQGTQVTVSS”, the “polyreactivity (PSR sort gate)” value was “low polyreactivity”.
In the case of “QVQLQERAAWCRRAGSLLLSCAASGNISDYYFMGWYRQAPAKERELVAAIAPGSNTYYADSVQGRFTISRDNAKKTVYLQMNSLKPEDTAVCFCAANSTQYTWFDDWGQGTQVPVSS”, the “polyreactivity (PSR sort gate)” value is reported as “low polyreactivity”.
With “QVQLQERGGGLVQAGGSLRLSCAASGYISHADEKGWYRQAPGKEHELVASISNGGCTNYADSEKGRFTISRDNAKNTLYLQMNSLKSEDTAVYYCAAWTGQVDIHYYWGQGTQVTVSS” the “polyreactivity (PSR sort gate)” value was “low polyreactivity”.
With “QVQLQERGGGLVQAGGSLRLSCAASRIIYADGFMGLYRQAPGKEREFVATITGGGTSNYADSVKGLFTISRDNAKNTVYLQMNSQKPEDTAVYYCAVYFAWTIGFTYWGQGTQVTVSS” the “polyreactivity (PSR sort gate)” value was “high polyreactivity”.
With “QVQLQERGGGLVQTGGSLSLSCEASGTISYSDSMCWYRQAPRKERELVAAIARGGITNYAYSVKGRFTISRDNAKNTVYLQMNSLKPEDTAVYYCADLSSRYAQFDYWGQGTQVTVSS” the “polyreactivity (PSR sort gate)” value was “low polyreactivity”.
For “QVQLQESAAGLVQAGGGLRLSCPASGTISGPHVMGWYRQSPGKEREFVAAINVGANTYYADNVKGRFTISRDNAKNTVYLQMNSLKPEDTGVYYCAAVYYGDIGHEYWGQGTQVTVSC”, the “polyreactivity (PSR sort gate)” value was “low polyreactivity”.
With “QVQLQESAGALVQAGGSLRQSYAASGYIFPSLSMGRYRQAPGKEREFVAAIGRGSTNNYADSVKGRFTISRDNANNTAYQQMISLKPEDTAVYYCAAAASQLTRHLYWGQGTQVTVSS” the “polyreactivity (PSR sort gate)” value was “low polyreactivity”.
With “QVQLQESAGGLVQAGDSQRMSCAASGNSFRFTDMGWYRQAPGKERELVAAINAGSTTYYADSVKGRFTISLDNAKNTVYLQMNSLKPEDTAVYYCAVYYLGSGTFGYWGQGAQVTVSS” the “polyreactivity (PSR sort gate)” value was “high polyreactivity”.
In the case of “QVQLQESAGGLVQAGGSLSLSCAASGSISRYYDMGWYRQAPGKEREFVAGISGGASTYYADSVKGRFTISRDNAKNTVYLQMNSLKPEDTAVYYCAADTGVYQYHSYWGQGTQVTVSS”, the “polyreactivity (PSR sort gate)” value is reported as “low polyreactivity”.
With “QVQLQESAGLVQAGGLRLSCAASGSVSYQEAMGWYRQAPGKERELVATMSFGANTNYADSVKVRFTISRDNAKNTVYLQMNSLKPEETAVYYCAAESLFDDYYGYWGQGTQVTVSS” the “polyreactivity (PSR sort gate)” value was “low polyreactivity”.

Reference: the nanobody polyreactivity screen of Harvey et al. (2022)
